Here are results for 7 molecules from patent publication US20230310432A1 (JULIUS-MAXIMILIANS-UNIVERSITÄT WÜRZBURG, priority 2017, published 2023).

Assay [1] relates to CD8+ T cells expressing a CD19 CAR with 4-1BB costimulation. As to the kind of experiment: Bioluminescence-based cytotoxicity assay, K562/CD19 target cells. Type of assay: cell-based, human. On the procedure: Cytotoxicity: Target cells were stably transduced with ffluc_GFP and incubated in triplicate wells at 1×10^4 cells/well with effector T cells at an effector to target (E:T) ratio of 5:1. D-luciferin substrate (Biosynth, Staad, Switzerland) was added to the co-culture to a final concentration of 0.15 mg/ml and the decrease in luminescence signal in wells that contained target cells and T-cells was measured using a luminometer (Tecan, Mannedorf, Switzerland). Specific lysis was calculated using the standard formula.
The inventors prepared CD8+ CAR-T cell lines from n=3 healthy donors. In each of the T-cell lines, the inventors enriched CAR-expressing T cells to >90% purity using the EGFRt-transduction marker. The inventors analyzed cytolytic activity of CD8^+ CAR-T cells in a bioluminescence-based cytotoxicity assay using K562 that the inventors had transduced with either CD19 (for testing CD19 CAR-T cells) or ROR1 (for testing ROR1 CAR-T cells) as target cells. Dasatinib was added to the assay medium at the beginning of the assay.
The inventors prepared CD8^+ CAR-T cell lines from n=3 healthy donors. In each of the T-cell lines, the inventors enriched CAR-expressing T cells to >90% purity using the EGFRt-transduction marker. The inventors analyzed cytolytic activity of CD8^+ CAR-T cells in a bioluminescence-based cytotoxicity assay using K562 target cells that the inventors had transduced with CD19.
The CAR-T cell cytolytic activity was analyzed at 1-hour intervals for 10 hours.
The inventors analyzed cytolytic activity of CD8+ CAR-T cells in a bioluminescence-based cytotoxicity assay.
The inventors prepared CD8^+ CD19 CAR-T cell lines with a 4-1BB costimulatory domain from one healthy donor. In the T-cell line, the inventors enriched CAR expressing T cells to >90% purity using the EGFRt-transduction marker. The inventors analyzed cytolytic activity of CD8^+ CAR-T cells in a 4-hour bioluminescence-based cytotoxicity assay using K562 that the inventors had transduced with CD19 as target cells to assess the influence of a panel of Src-kinase inhibitors on the cytolytic function of CAR-T cells. Src-kinase inhibitors were added to the assay medium at the beginning of the assay over a 4-log concentration range.

The test system is the same in assay [2]. As to the kind of experiment: CFSE proliferation assay, co-culture with K562/CD19. The format is cell-based, human. The conditions noted are these: dexamethasone, any given concentration; 24 h-pretreatment or at start of co-culture; 72 h.
Assay [3] shares this test system. The assay is described as follows: Cytokine production and secretion (IFN-γ, IL-2 ELISA), co-culture with K562/CD19. Type of assay: cell-based, human. Conditions: any given concentration of dexamethasone; pre-treated or during assay only. Background: In an ELISA, binding on a coated surface is turned into a signal by an enzyme label.
Assay [4] concerns CAR-T cells co-expressing the iCasp suicide gene. As to the kind of experiment: Elimination of iCasp+ T cells. The format is cell-based, human. The conditions noted are these: dimerizer (10 nM AP20187) without dasatinib; 24 hours. On the procedure: After 24 hours, cells were labeled with anti-CD3 mAB and analyzed by flow cytometry for the presence of iCasp+ T cells.
After 24 hours, cells were labeled with anti-CD3 mAB and analyzed by flow cytometry for the presence of iCasp^+ T cells.

Assay [5] relates to CD8+ T cells expressing a ROR1 CAR with 4-1BB costimulatory domain. The assay is described as follows: IFN-γ ELISA, co-culture with RCH-ACV. The format is cell-based, human. Conditions: […] nilotinib; 20 h; 1310 pg/ml by untreated CAR-T cells.
The target of another assay is human SLAMF7 (human) (UniProt Q9NQ25). As to the kind of experiment: cell-based or functional assay.
The target of a further assay is human ROR1 (human) (UniProt Q01973). As to the kind of experiment: cell-based or functional assay.

`Cc1ccc(-c2nn(C(C)(C)C)c3ncnc(N)c23)cc1` [PP1-inhibitor]: the “specific lysis of target cells” value in assay [1] (inhibitor 10 nM, 4-hour assay, 82% by untreated CAR-T cells) worked out at 62.4%.

As for `C[C@@H]1C[C@H]2[C@@H]3CCC4=CC(=O)C=C[C@]4(C)[C@@]3(F)[C@@H](O)C[C@]2(C)[C@@]1(O)C(=O)CO` [dexamethasone], in assay [1] (dexamethasone added at the beginning of the assay, any of the applied dosages (0.1-100 μM), 91% non-treated), the “specific lysis of target cells” value was greater than 87%. Also, the “specific lysis of target cells” value in assay [1] (pre-treated for 24 h with dexamethasone, all tested doses, t=10 h, 91% non-treated) is recorded as greater than 45%. The “remaining proliferation compared to untreated CAR-T cells” value in assay [2] was “less than 26%”. Further, in assay [3], the “residual specific IFN-γ secretion compared to non-treated CAR-T cells” value is on record as “more than 43%” and the “residual specific IL-2 secretion compared to non-treated CAR-T cells” value is “less than 17%”.

With `CC[C@H](C(=O)N1CCCC[C@H]1C(=O)O[C@H](CCc1ccc(OC)c(OC)c1)c1cccc(OCC(=O)NCC(CNC(=O)COc2cccc([C@@H](CCc3ccc(OC)c(OC)c3)OC(=O)[C@@H]3CCCCN3C(=O)[C@@H](CC)c3cc(OC)c(OC)c(OC)c3)c2)CN(C)C)c1)c1cc(OC)c(OC)c(OC)c1` [dimerizer, AP20187], the “percentage of iCasp+ cells” value in assay [4] amounted to 45%.

On to `Cc1cn(-c2cc(NC(=O)c3ccc(C)c(Nc4nccc(-c5cccnc5)n4)c3)cc(C(F)(F)F)c2)cn1` [nilotinib], for which, in assay [5], the “production and secretion of IFN-γ” value was found to be 480 pg/mL.

B1: SLAMF7 CAR with 4-1BB costimulatory domain (receptor)
chain: EVQLVESGGGLVQPGGSLRLSCAASGFDFSRYWMSWVRQAPGKGLEWIGEINPDSSTINYAPSLKDKFIISRDNAKNSLYLQMNSLRAEDTAVYYCARPDGNYWYFDVWGQGTLVTVSSGGGGSGGGGSGGGGSDIQMTQSPSSLSASVGDRVTITCKASQDVGIAVAWYQQKPGKVPKLLIYWASTRHTGVPDRFSGSGSGTDFTLTISSLQPEDVATYYCQQYSSYPYTFGQGTKVEIKESKYGPPCPPCPAPPVAGPSVFLFPPKPKDTLMISRTPEVTCVVVDVSQEDPEVQFNWYVDGVEVHNAKTKPREEQFQSTYRVVSVLTVLHQDWLNGKEYKCKVSNKGLPSSIEKTISKAKGQPREPQVYTLPPSQEEMTKNQVSLTCLVKGFYPSDIAVEWESNGQPENNYKTTPPVLDSDGSFFLYSRLTVDKSRWQEGNVFSCSVMHEALHNHYTQKSLSLSLGKMFWVLVVVGGVLACYSLLVTVAFIIFWVKRGRKKLLYIFKQPFMRPVQTTQEEDGCSCRFPEEEEGGCELRVKFSRSADAPAYQQGQNQLYNELNLGRREEYDVLDKRRGRDPEMGGKPRRKNPQEGLYNELQKDKMAEAYSEIGMKGERRRGKGHDGLYQGLSTATKDTYDALHMQALPPR
In the assay with human SLAMF7 (human), B1 yielded a specific lysis of K562/SLAMF7 target cells by CD8+ CAR-T cells without dasatinib, t=6 h of 63% and a specific lysis of K562/SLAMF7 target cells by CD8+ CAR-T cells without dasatinib, t=12 h of 83%.

B2: ROR1 CAR with 4-1BB costimulatory domain (receptor)
chain: QVQLVESGGALVQPGGSLTLSCKASGFDFSAYYMSWVRQAPGKGLEWIATIYPSSGKTYYAASVQGRFTISADNAKNTVYLQMNSLTAADTATYFCARDSYADDGALFNIWGQGTLVTVSSGGGGSGGGGSGGGGSQLVLTQSPSVSAALGSSAKITCTLSSAHKTDTIDWYQQLAGQAPRYLMYVQSDGSYEKRSGVPDRFSGSSSGADRYLIISSVQADDEADYYCGADYIGGYVFGGGTQLTVGESKYGPPCPPCPMFWVLVVVGGVLACYSLLVTVAFIIFWVKRGRKKLLYIFKQPFMRPVQTTQEEDGCSCRFPEEEEGGCELRVKFSRSADAPAYQQGQNQLYNELNLGRREEYDVLDKRRGRDPEMGGKPRRKNPQEGLYNELQKDKMAEAYSEIGMKGERRRGKGHDGLYQGLSTATKDTYDALHMQALPPR
In the assay with human ROR1 (human), B2 returned an IFN-γ in supernatant (ELISA) of co-culture with RCH-ACV target cells, untreated CD8+ CAR-T cells of 1310 pg/mL; a proliferation index (CFSE) after 72 h co-culture with RCH-ACV, untreated CD8+ CAR-T cells of 2.84; a specific lysis of K562/ROR1 target cells by CD8+ CAR-T cells without dasatinib, t=10 h of 94%; a specific lysis of K562/ROR1 target cells by CD8+ CAR-T cells without dasatinib, up to t=5 h of 73%. For the same molecule, in the assay with human ROR1 (human), the specific lysis of RCH-ACV target cells by untreated CD8+ CAR-T cells, t=8 hours is greater than 90%.

B3: SLAMF7 CAR with CD28 costimulatory domain (receptor)
chain: EVQLVESGGGLVQPGGSLRLSCAASGFDFSRYWMSWVRQAPGKGLEWIGEINPDSSTINYAPSLKDKFIISRDNAKNSLYLQMNSLRAEDTAVYYCARPDGNYWYFDVWGQGTLVTVSSGGGGSGGGGSGGGGSDIQMTQSPSSLSASVGDRVTITCKASQDVGIAVAWYQQKPGKVPKLLIYWASTRHTGVPDRFSGSGSGTDFTLTISSLQPEDVATYYCQQYSSYPYTFGQGTKVEIKESKYGPPCPPCPAPPVAGPSVFLFPPKPKDTLMISRTPEVTCVVVDVSQEDPEVQFNWYVDGVEVHNAKTKPREEQFQSTYRVVSVLTVLHQDWLNGKEYKCKVSNKGLPSSIEKTISKAKGQPREPQVYTLPPSQEEMTKNQVSLTCLVKGFYPSDIAVEWESNGQPENNYKTTPPVLDSDGSFFLYSRLTVDKSRWQEGNVFSCSVMHEALHNHYTQKSLSLSLGKMFWVLVVVGGVLACYSLLVTVAFIIFWVRSKRSRGGHSDYMNMTPRRPGPTRKHYQPYAPPRDFAAYRSRVKFSRSADAPAYQQGQNQLYNELNLGRREEYDVLDKRRGRDPEMGGKPRRKNPQEGLYNELQKDKMAEAYSEIGMKGERRRGKGHDGLYQGLSTATKDTYDALHMQALPPR
Turning to B3, in the assay with human SLAMF7 (human), the specific lysis of K562/SLAMF7 target cells by CD8+ CAR-T cells without dasatinib, t=6 h was 67% and the specific lysis of K562/SLAMF7 target cells by CD8+ CAR-T cells without dasatinib, t=12 h is 85%.
